5 substances from publication PMC10591298 can be followed below.

This series addresses Lys119 (UniProt position 119, IPVLRKDFVVQ). Kind of series: kinetics. To be noted: 25 °C; 100 mM NaCl in MTEN buffer (said to have minimal change in ionic strength with pH); Steady-state turnover with CdRP (60 µM) above KM; enzyme 0.25-60 µM depending on variant.

The term pKa denotes the negative logarithm of the acid dissociation constant. High values mean a weaker acid or stronger base, low ones a stronger acid or weaker base. “MtIGPS Glu219Gln (Mycobacterium tuberculosis; E219Q)” registered a pKa of 9.9 ± 0.1.
Next, “MtIGPS Glu57Asp (Mycobacterium tuberculosis; E57D)”: 7.7 ± 0.1.
The value for “MtIGPS Glu219Asp (Mycobacterium tuberculosis; E219D)” was 7.6 ± 0.2.
The value for “Indole-3-glycerol phosphate synthase (MtIGPS), wild type (Mycobacterium tuberculosis)” was 9.0 ± 0.1; that for “MtIGPS Glu219Asn (Mycobacterium tuberculosis; E219N)” was 10.0 ± 0.2.
